Reference: US20140023585A1, “177 LUTETIUM-LABELED BOMBESIN ANALOGS FOR RADIOTHERAPY” (UNIVERSITATSSPITAL BASEL, priority 2010, published 2014)

Assay: in vivo
Settings: male, NMRI nu/nu, mouse, iv, total radioactivity; for tissue uptake at 1 h: 1.0 h p.a.; for tissue uptake at 4 h: 4.0 h p.a.; for tissue uptake at 24 h: 24.0 h p.a.; for tissue uptake at 48 h: 48.0 h p.a.; for tissue uptake at 72 h: 72.0 h p.a.
Experimental: Biodistribution was investigated in NMRI nude mice bearing subcutaneous PC-3 tumors in the right hind limb at different time-points. Body weight of the male mice was approx. 30 g, 3 animals were investigated per time-point. After injecting an intravenous dose into the tail vein, mice were sacrificed at indicated time points and dissected organs were analyzed by radioactive counting. An administration dose of 100 μL was applied per animal with a mean activity of 86 kBq.
At indicated time points urine and feces were quantitatively collected. At the same time points, animals were sacrificed and exsanguinations under isoflurane anesthesia and the following organs and tissues were removed for measurement of [^177Lu] using the gamma-counter: spleen, liver, gallbladder, kidneys, lung, femur, heart, brain, fat, thyroid, muscle, skin, blood, tail, stomach (without content), prostate, intestine (with content), pancreas, adrenals, and the remaining body (designated as carcass).
Whole organs and tissues or aliquots were weighted and measured in a gamma-counter for radioactivity. In order to get the amount of total radioactivity administered in each animal (=100%) 3 aliquots (100 μL each) of the injected solution were always measured in parallel. The results of the biodistribution and excretion are reported as percent of injected dose per gram of tissue (% ID/g) and percent of injected dose per organ (% ID), respectively. All data are given as mean value±standard deviation, which were calculated by using all animals per time and sample.

[1] = pancreas, 86 kBq per animal, % ID/g Pancreas
[2] = stomach (without content), 86 kBq per animal, % ID/g Stomach
[3] = stomach (without content), 86 kBq
[4] = tail, 86 kBq per animal, % ID/g Tail

CC(C)C[C@H](NC(=O)C[C@H](O)[C@H](CC(C)C)NC(=O)[C@H](Cc1c[nH]cn1)NC(=O)CNC(=O)[C@@H](NC(=O)[C@H](C)NC(=O)[C@H](Cc1c[nH]c2ccccc12)NC(=O)[C@H](CCC(N)=O)NC(=O)[C@@H](Cc1ccccc1)NC(=O)CN1CCC(NC(=O)CN2CCN(CC(=O)O)CCN(CC(=O)O)CCN(CC(=O)O)CC2)CC1)C(C)C)C(N)=O [compound 2, [^177Lu]-DOTA-4-amino-1-carboxymethylpiperidine-D-Phe-Gln-Trp-Ala-Val-Gly-His-Sta-Leu-NH2, metal not drawn]
tissue uptake dose at 24 h (lung, 86 kBq per animal): 0.005 %ID
tissue uptake dose at 48 h (lung, 86 kBq per animal): 0.013 %ID
tissue uptake at 1 h (lung, 86 kBq, % ID/g Lung): 0.364 %ID/g
tissue uptake at 4 h (lung, 86 kBq, % ID/g Lung): 0.083 %ID/g
tissue uptake at 24 h (lung, 86 kBq, % ID/g Lung): 0.019 %ID/g
tissue uptake at 48 h (lung, 86 kBq, % ID/g Lung): 0.048 %ID/g
tissue uptake dose at 1 h (muscle, 86 kBq per animal): 0.014 %ID
tissue uptake dose at 4 h (muscle, 86 kBq per animal): 0.003 %ID
tissue uptake at 1 h (muscle, 86 kBq, % ID/g Muscle): 0.072 %ID/g
tissue uptake at 4 h (muscle, 86 kBq, % ID/g Muscle): 0.02 %ID/g
tissue uptake dose at 1 h (organs (sum), 86 kBq): 20.1 %ID
tissue uptake dose at 4 h (organs (sum), 86 kBq): 9.64 %ID
tissue uptake dose at 24 h (organs (sum), 86 kBq): 3.64 %ID
tissue uptake dose at 48 h (organs (sum), 86 kBq): 2.09 %ID
tissue uptake dose at 72 h (organs (sum), 86 kBq): 1.37 %ID
tissue uptake at 1 h [1]: 18.7 %ID/g
tissue uptake at 4 h [1]: 5.17 %ID/g
tissue uptake at 24 h [1]: 0.579 %ID/g
tissue uptake at 48 h [1]: 0.288 %ID/g
tissue uptake at 72 h [1]: 0.206 %ID/g
tissue uptake dose at 1 h (pancreas, 86 kBq): 8.03 %ID
tissue uptake dose at 4 h (pancreas, 86 kBq): 1.74 %ID
tissue uptake dose at 24 h (pancreas, 86 kBq): 0.196 %ID
tissue uptake dose at 48 h (pancreas, 86 kBq): 0.076 %ID
tissue uptake dose at 72 h (pancreas, 86 kBq): 0.046 %ID
tissue uptake at 1 h (prostate, 86 kBq per animal, % ID/g Prostate): 0.289 %ID/g
tissue uptake dose at 1 h (prostate, 86 kBq): 0.003 %ID
tissue uptake dose at 1 h (skin, 86 kBq per animal): 1.81 %ID
tissue uptake dose at 4 h (skin, 86 kBq per animal): 0.515 %ID
tissue uptake dose at 24 h (skin, 86 kBq per animal): 0.162 %ID
tissue uptake dose at 48 h (skin, 86 kBq per animal): 0.246 %ID
tissue uptake dose at 72 h (skin, 86 kBq per animal): 0.152 %ID
tissue uptake at 72 h (skin, 86 kBq per animal, % ID/g Skin): 0.04 %ID/g
tissue uptake at 1 h (skin, 86 kBq, % ID/g Skin): 0.409 %ID/g
tissue uptake at 4 h (skin, 86 kBq, % ID/g Skin): 0.145 %ID/g
tissue uptake at 24 h (skin, 86 kBq, % ID/g Skin): 0.055 %ID/g
tissue uptake at 48 h (skin, 86 kBq, % ID/g Skin): 0.074 %ID/g
tissue uptake dose at 1 h (spleen, 86 kBq per animal): 0.034 %ID
tissue uptake dose at 4 h (spleen, 86 kBq per animal): 0.015 %ID
tissue uptake dose at 24 h (spleen, 86 kBq per animal): 0.005 %ID
tissue uptake dose at 48 h (spleen, 86 kBq per animal): 0.003 %ID
tissue uptake at 1 h (spleen, 86 kBq, % ID/g Spleen): 0.284 %ID/g
tissue uptake at 4 h (spleen, 86 kBq, % ID/g Spleen): 0.152 %ID/g
tissue uptake at 24 h (spleen, 86 kBq, % ID/g Spleen): 0.06 %ID/g
tissue uptake at 48 h (spleen, 86 kBq, % ID/g Spleen): 0.056 %ID/g
tissue uptake at 1 h [2]: 2.56 %ID/g
tissue uptake at 4 h [2]: 1.36 %ID/g
tissue uptake at 24 h [2]: 0.081 %ID/g
tissue uptake at 48 h [2]: 0.042 %ID/g
tissue uptake at 72 h [2]: 0.02 %ID/g
tissue uptake dose at 1 h [3]: 0.614 %ID
tissue uptake dose at 4 h [3]: 0.321 %ID
tissue uptake dose at 24 h [3]: 0.018 %ID
tissue uptake dose at 48 h [3]: 0.01 %ID
tissue uptake dose at 72 h [3]: 0.005 %ID
tissue uptake dose at 1 h (tail, 86 kBq per animal): 1.84 %ID
tissue uptake dose at 4 h (tail, 86 kBq per animal): 0.694 %ID
tissue uptake dose at 24 h (tail, 86 kBq per animal): 0.337 %ID
tissue uptake dose at 48 h (tail, 86 kBq per animal): 0.15 %ID
tissue uptake at 1 h [4]: 2.23 %ID/g
tissue uptake at 4 h [4]: 0.953 %ID/g
tissue uptake at 24 h [4]: 0.436 %ID/g
tissue uptake at 48 h [4]: 0.194 %ID/g
tissue uptake at 72 h [4]: 0.313 %ID/g
tissue uptake dose at 72 h (tail, 86 kBq): 0.263 %ID
tissue uptake dose at 1 h (thyroid, 86 kBq per animal): 0.006 %ID
tissue uptake at 1 h (thyroid, 86 kBq, % ID/g Thyroid): 0.185 %ID/g
tissue uptake dose at 1 h (tumor, 86 kBq per animal): 1.12 %ID
tissue uptake dose at 4 h (tumor, 86 kBq per animal): 3.07 %ID
tissue uptake dose at 24 h (tumor, 86 kBq per animal): 2.19 %ID
tissue uptake dose at 48 h (tumor, 86 kBq per animal): 1.05 %ID
tissue uptake dose at 72 h (tumor, 86 kBq per animal): 0.55 %ID
tissue uptake at 1 h (tumor, 86 kBq, % ID/g Tumor): 5.6 %ID/g
tissue uptake at 4 h (tumor, 86 kBq, % ID/g Tumor): 8.1 %ID/g
tissue uptake at 24 h (tumor, 86 kBq, % ID/g Tumor): 6.06 %ID/g
tissue uptake at 48 h (tumor, 86 kBq, % ID/g Tumor): 3.58 %ID/g
tissue uptake at 72 h (tumor, 86 kBq, % ID/g Tumor): 2.49 %ID/g
dose excreted at 1 h (urine, 86 kBq): 71.8%
dose excreted at 4 h (urine, 86 kBq): 63.1%
dose excreted at 24 h (urine, 86 kBq): 76.3%
dose excreted at 48 h (urine, 86 kBq): 74%
dose excreted at 72 h (urine, 86 kBq): 63.7%
